According to patent US20100173324A1:

Target: human CD27 expressed on CHO/DG44 cells (normal O-linked sugar chain) (human) (UniProt P26842)
Assay: flow cytometry on CD27/DG44-4 cells

UniProt P26842, sequence (P26842 20-260 H233R limits assumed): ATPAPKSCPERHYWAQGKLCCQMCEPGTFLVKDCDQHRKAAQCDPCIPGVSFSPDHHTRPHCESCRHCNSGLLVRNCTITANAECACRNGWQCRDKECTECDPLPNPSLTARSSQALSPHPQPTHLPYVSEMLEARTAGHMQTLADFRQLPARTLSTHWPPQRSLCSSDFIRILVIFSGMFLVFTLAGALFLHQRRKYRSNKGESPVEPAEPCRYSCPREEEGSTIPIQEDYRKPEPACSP

EC50 (read off the curve): 0.2 µg/mL
Substance: Anti-CD27 Antibody (O323)
